Residue numbers refer to the chain shown, from its start. In names and notes the source's numbering stands.
B1: Construct 1 PAL02-0195 (IgG1 Fc_M252Y/S254T/T256E/M428L/H433K/N434F) (other)
chain: DKTHTCPPCPAPELLGGPSVFLFPPKPKDTLYITREPEVTCVVVDVSHEDPEVKFNWYVDGVEVHNAKTKPREEQYNSTYRVVSVLTVLHQDWLNGKEYKCKVSNKALPAPIEKTISKAKGQPREPQVYTLPPSRDELTKNQVSLTCLVKGFYPSDIAVEWESNGQPENNYKTTPPVLDSDGSFFLYSKLTVDKSRWQQGNVFSCSVLHEALKFHYTQKSLSLSPG
notes: Fc fragment variant
B2: Construct 4 PAL02-0198 (IgG1 Fc_M252Y/S254T/T256E/M428L/N434F) (other)
chain: B1 chain with K213H
notes: Fc fragment variant
B3: Construct 5 PAL02-0200 (IgG1 Fc_M252Y/S254T/T256E/H433R/N434Y) (other)
chain: B1 chain with L208M, K213R, F214Y
notes: Fc fragment variant
B4: Construct 3 PAL02-0197 (IgG1 Fc_M252Y/S254T/T256E/H433K/N434Y) (other)
chain: B1 chain with L208M, F214Y
notes: Fc fragment variant
B5: Construct 6 PAL02-0202 (IgG1 Fc_M252Y/S254T/T256E/H433R/N434F) (other)
chain: B1 chain with L208M, K213R
notes: Fc fragment variant

Molecular target: T1, Recombinant in-house Human FcRn protein (human, UniProt P55899 24-297; P61769 21-119)
T1 construct: also called HuFcRn; huFcRn
Assay: competition ELISA, huFcRn coated, pH 6.0, competitor biotinylated human IgG1; reference PAL02-0002
Experimental: A competitive binding ELISA assay was used to screen for molecules that prevent IgG from binding to recombinant in-house human FcRn protein at pH 6.0. Candidate therapeutics prevent FcRn from binding IgG Abs in the acidic pH 6.0 endosomal environment. […] IC50 values were calculated using GraphPad Prism 7 software applying a nonlinear regression (curve fit) of a log (antagonist) vs. response—variable slop (four parameters).

T1 sequence (P55899 24-297 limits assumed, chain 1 of 2): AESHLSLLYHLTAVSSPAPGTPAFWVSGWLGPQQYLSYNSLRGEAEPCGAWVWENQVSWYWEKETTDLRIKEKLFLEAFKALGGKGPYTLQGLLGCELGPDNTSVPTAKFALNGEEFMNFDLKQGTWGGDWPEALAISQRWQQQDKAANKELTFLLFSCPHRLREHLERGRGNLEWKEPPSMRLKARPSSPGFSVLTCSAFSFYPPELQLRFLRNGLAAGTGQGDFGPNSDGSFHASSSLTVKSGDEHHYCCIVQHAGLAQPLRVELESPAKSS
T1 sequence (P61769 21-119 limits assumed, chain 2 of 2): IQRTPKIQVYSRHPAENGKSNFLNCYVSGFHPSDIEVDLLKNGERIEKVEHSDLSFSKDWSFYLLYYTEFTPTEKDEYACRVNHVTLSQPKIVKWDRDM

Binder	IC50 as a ratio to Efgartigimod	fold lower IC50 than Efgartigimod
B1	~0.5 ratio	–
B2	~0.5 ratio	–
B3	~0.5 ratio	–
B4	~0.5 ratio	3.5 fold
B5	~0.5 ratio	–

— patent publication US20260049146A1 (PARAGON THERAPEUTICS, published 2026)
